{
  "source": "paper PMC10967716",
  "target": "α-Methylacyl-CoA racemase from Mycobacterium tuberculosis, wild-type (M. tuberculosis) (UniProt O06543)",
  "experiment": "SEC",
  "data": [
    {"substance": "α-Methylacyl-CoA racemase from Mycobacterium tuberculosis, wild-type (from UniProt O06543 1-360) (enzyme)", "values": [
      {"measurement": "stoichiometry N", "value": 2}
    ]}
  ]
}
